We go through three substances from article PMC9588060.

Assay [1] concerns the target PD-L1 (coated in the ELISA) (not stated (human or mouse PD-L1 coated)) (UniProt Q9NZQ7). Description: ELISA; human PD-L1. For orientation: An ELISA detects its analyte on a solid surface through an enzyme-linked reagent.
The target is the same in assay [2]. Description: ELISA; mouse PD-L1. The following applies: Fc fusion.
In the next assay the target is PlGF (UniProt P49763). The assay is described as follows: ELISA. The note with it: Fc fusion.
The target of a further assay is hVEGFA165 (human) (UniProt P15692). The assay is described as follows: ELISA. The following applies: Fc fusion.

pEC50: −log10 of the molar value.

Ate-Grab, sequence (P17948 whole entry, looked up): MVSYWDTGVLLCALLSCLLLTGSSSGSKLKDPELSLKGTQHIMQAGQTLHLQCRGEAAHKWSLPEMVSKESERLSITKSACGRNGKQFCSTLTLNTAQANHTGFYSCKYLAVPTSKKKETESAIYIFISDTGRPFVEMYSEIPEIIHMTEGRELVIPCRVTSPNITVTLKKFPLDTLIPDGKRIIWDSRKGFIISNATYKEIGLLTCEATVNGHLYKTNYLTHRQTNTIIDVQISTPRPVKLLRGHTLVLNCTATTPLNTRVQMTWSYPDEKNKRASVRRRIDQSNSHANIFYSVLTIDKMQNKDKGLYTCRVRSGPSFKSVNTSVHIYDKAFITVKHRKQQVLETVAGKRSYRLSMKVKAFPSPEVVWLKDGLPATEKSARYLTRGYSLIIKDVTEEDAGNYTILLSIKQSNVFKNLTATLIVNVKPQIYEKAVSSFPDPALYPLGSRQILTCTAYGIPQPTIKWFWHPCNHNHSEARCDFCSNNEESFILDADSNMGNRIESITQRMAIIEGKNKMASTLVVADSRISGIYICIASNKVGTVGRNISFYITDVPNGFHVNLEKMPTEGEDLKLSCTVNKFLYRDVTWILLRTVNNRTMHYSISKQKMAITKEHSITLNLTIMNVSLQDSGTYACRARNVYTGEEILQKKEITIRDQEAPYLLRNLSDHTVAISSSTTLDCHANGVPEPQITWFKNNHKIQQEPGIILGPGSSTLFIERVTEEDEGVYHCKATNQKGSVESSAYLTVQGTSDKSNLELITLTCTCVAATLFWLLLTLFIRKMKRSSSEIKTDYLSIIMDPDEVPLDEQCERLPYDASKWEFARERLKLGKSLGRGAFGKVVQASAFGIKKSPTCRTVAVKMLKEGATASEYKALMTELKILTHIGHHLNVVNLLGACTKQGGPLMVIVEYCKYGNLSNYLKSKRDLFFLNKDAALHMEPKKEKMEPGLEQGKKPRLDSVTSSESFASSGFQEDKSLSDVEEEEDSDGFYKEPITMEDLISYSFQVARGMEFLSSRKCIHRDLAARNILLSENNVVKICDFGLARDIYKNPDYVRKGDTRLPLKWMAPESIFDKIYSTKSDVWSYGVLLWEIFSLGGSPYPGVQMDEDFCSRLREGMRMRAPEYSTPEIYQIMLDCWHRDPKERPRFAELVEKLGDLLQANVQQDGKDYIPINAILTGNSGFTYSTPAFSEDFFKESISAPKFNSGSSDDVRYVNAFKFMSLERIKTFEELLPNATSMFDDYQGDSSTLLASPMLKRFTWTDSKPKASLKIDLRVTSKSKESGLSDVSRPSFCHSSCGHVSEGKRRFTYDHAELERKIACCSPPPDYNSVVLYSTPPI
PD-L1 (coated in the ELISA) (not stated (human or mouse PD-L1 coated)), sequence (Q9NZQ7 19-290): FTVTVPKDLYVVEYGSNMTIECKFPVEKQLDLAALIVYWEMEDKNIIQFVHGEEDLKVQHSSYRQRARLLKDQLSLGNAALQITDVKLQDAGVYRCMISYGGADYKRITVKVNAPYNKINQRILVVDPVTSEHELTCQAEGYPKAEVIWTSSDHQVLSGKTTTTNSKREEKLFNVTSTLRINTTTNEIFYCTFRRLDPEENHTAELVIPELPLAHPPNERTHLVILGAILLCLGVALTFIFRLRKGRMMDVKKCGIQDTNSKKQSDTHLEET
hVEGFA165 (human), sequence (P15692 other isoform, or with tags, fused parts or gaps): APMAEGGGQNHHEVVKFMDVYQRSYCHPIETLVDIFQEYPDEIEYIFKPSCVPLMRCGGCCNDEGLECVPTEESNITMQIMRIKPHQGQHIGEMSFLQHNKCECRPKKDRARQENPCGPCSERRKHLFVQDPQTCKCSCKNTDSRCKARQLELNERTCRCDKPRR
PlGF, sequence (P49763 19-221): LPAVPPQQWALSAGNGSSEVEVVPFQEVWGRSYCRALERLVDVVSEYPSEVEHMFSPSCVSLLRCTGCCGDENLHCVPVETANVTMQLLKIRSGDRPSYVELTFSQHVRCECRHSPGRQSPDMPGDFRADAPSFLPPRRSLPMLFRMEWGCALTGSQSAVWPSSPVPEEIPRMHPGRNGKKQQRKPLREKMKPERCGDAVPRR
VEGF-Grab, sequence (P17948 whole entry, looked up): as the sequence (P17948 whole entry, looked up) above

In assay [1], Atezolizumab gave a pEC50 of 9.97.
In the case of Ate-Grab (from UniProt P17948), the negative-log EC50 (pEC50) was 9.43 in assay [2], 9.65 in assay [1] (Fc fusion), 9.03 in the assay with PlGF and 9.19 with hVEGFA165 (human).
With VEGF-Grab (from UniProt P17948), the results for the negative-log EC50 (pEC50) with PlGF and with hVEGFA165 (human) were 9.21 and 9.16, respectively.

A word on the pEC50: it is the negative decadic logarithm of the EC50, by convention in mol/L. A lower pEC50 goes with a large EC50.
